Assay [1] deals with T1, human RAGE-Fc fusion protein (human, UniProt Q15109 23-344).
T1 construct: also called hRAGE-Fc; huRAGE-Fc; not shown: Fc domain of human IgG
Nature of the assay: ELISA of in vitro translated ScFv on coated human RAGE-Fc, anti-Flag detection. The method, then:
ELISA plates coated with human RAGE-Fc (5 ug/ml) or BSA (200 ug/ml) in bicarbonate buffer overnight at 4° C., washed with PBS+tween 0.05% and blocked for 1 hour at room temperature with 2% milk powder PBS. Plates were incubated with in vitro translated ScFv for 2 hours at room temp. Plates were blocked and detection was with anti-Flag antibody (1/1000 dilution) followed by rabbit anti-mouse HRP (1/1000 dilution). […] Values for Kd of the ScFv in both formats as determined by BIACORE™ are used to determine the optimum antigen concentrations for selection experiments.
A general note: An ELISA detects its analyte on a solid surface through an enzyme-linked reagent.

In assay [2] the target is T2, BSA (Bos taurus, UniProt P02769).
T2 construct: control antigen in the ScFv ELISA; also called bovine serum albumin
The experiment in a line: ELISA of E. coli periplasmic ScFv cross-linked with anti-His antibody, on coated BSA. The method, then: ActRIIb represents a non-binding protein expressed from the same vector as a negative control. ELISA plates were coated with human RAGE-Fc (5 ug/ml) or BSA (200 ug/ml) in bicarbonate buffer overnight at 4 °C, washed with PBS+tween 0.05% and blocked for 1 hour at room temperature with 2% milk powder PBS. Periplasmic preparations of 20 ml E. coli cultures were performed using standard procedures. The final volume of periplasmic preparations of unpurified ScFv antibodies was 1 ml of which 50 ul was pre-incubated with anti-His antibody at 1/1000 dilution for 1 hour at room temperature in a total volume of 100 ul with 2% milk powder PBS. The cross linked periplasmic preparations were added to the ELISA plate and incubated for a further 2 hours at room temperature. The plates were washed 2 times with PBS+0.05% tween and 2 times with PBS and incubated with rabbit anti-mouse HRP at 1/1000 dilution in 2% milk powder PBS. The plates were washed as before and binding was detected using standard TMB reagents. […] Starting Kd values of the ScFv in both formats as determined by BIACORE™ are used to determine the optimum antigen concentrations for affinity selections.

Assay [3] has as its target T3, baboon RAGE (baboon (Papio cyanocephalus), UniProt Q15109 23-404 (human entry)).
T3 construct: On transfected 293 cells or endogenous in baboon lung sections; also called 293-baboon RAGE; RAGE in baboon lung
T3 chain: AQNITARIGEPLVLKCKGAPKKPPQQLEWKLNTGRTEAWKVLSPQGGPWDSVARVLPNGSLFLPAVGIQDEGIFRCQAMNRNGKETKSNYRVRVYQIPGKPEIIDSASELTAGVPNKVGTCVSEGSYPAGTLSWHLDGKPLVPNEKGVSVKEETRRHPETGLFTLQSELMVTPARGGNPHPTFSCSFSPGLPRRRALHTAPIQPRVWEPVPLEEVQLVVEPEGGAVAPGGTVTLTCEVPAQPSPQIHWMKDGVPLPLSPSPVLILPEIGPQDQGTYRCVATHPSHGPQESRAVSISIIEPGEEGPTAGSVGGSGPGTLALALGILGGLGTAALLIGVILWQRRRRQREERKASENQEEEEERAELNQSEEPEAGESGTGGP
The experiment in a line: IHC, septic baboon lung, 1 µg/ml. The method, then: Immunohistochemistry for RAGE lung tissues isolated from baboon, cynomolgus monkey, rabbit or Chinese Hamster Ovary cells over-expressing human RAGE or control CHO cells were performed using standard techniques. RAGE antibodies and rat IgG2b isotype control or mouse isotype control were used at […]. […] Following detection with HRP and Alexa Fluor 594, Alexa Fluor 488 or anti-biotin conjugated with FITC, sections were also stained with 4′-6-Diamidino-2-phenylindole (DAPI).
CHO cells stable transfected with an expression vector that expresses DNA encoding hRAGE is used as a positive control.

Assay [4] has as its target T4, soluble human streptavidin-tagged RAGE (human, UniProt Q15109 23-344).
T4 construct: also called hRAGE-SA; human RAGE-strep
Nature of the assay: BIACORE capture assay, antibody on CM5 chip, hRAGE-SA 0-100 nM in solution. How it is done: The assays were performed by coating antibodies onto a CM5 BIA chip with 5000-7000 RU.
A general note: SPR reads the build-up and loss of mass on a sensor chip optically.

Assay [5] deals with T5, murine RAGE-strep tag fusion protein (mouse, UniProt Q62151 23-343).
T5 construct: also called mRAGE-strep; mRAGE-SA
T5 chain: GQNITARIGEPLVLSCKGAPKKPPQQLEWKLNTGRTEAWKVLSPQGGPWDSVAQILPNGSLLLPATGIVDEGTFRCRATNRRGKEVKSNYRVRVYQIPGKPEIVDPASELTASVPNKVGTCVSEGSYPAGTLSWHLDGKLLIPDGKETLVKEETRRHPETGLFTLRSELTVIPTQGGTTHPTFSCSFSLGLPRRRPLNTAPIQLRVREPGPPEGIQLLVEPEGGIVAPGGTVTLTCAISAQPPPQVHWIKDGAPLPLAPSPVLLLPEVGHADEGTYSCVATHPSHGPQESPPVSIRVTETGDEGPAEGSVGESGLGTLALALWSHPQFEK
Nature of the assay: BIACORE capture, SA-Mu RAGE over captured antibody, 1:1 Langmuir global fit, FC3. How it is done: (§1) The assays were performed by coating anti-human Fc antibodies onto a CM5 BIA chip with 5000 RU (pH 5.0, 7 min.) in flow cells 1-4. Each antibody was captured by flowing at 2.0 μg/ml over the anti-Fc antibodies in flow cells 2-4 (flow cell 1 was used as a reference).

The target in assay [6] is T4, soluble human streptavidin-tagged RAGE. Nature of the assay: BIACORE capture, hRAGE-SA over captured antibody, 1:1 Langmuir global fit, row Average. The method, then: as §1
For assay [7] the target is unchanged. Nature of the assay: BIACORE capture, hRAGE-SA over captured antibody, 1:1 Langmuir global fit, FC3. How it is done:
as §1

Assay [8] has the same target. The experiment in a line: BIACORE capture, hRAGE-SA over captured antibody, steady state affinity, row Average. How it is done: as §1
Assay [9] shares this target. Nature of the assay: BIACORE capture, hRAGE-SA over captured antibody, steady state affinity, FC2. How it is done:
as §1

Assay [10] shares this target. The experiment in a line: BIACORE capture, hRAGE-SA over captured antibody, 1:1 Langmuir global fit, FC4. The method, then: as §1
The target is the same in assay [11]. Nature of the assay: BIACORE capture, hRAGE-SA over captured antibody, 1:1 Langmuir global fit, FC2. How it is done: as §1
Assay [12] has as its target T5, murine RAGE-strep tag fusion protein. Nature of the assay: BIACORE capture, SA-Mu RAGE over captured antibody, 1:1 Langmuir global fit, row Average. The method, then:
as §1

The target in assay [13] is T4, soluble human streptavidin-tagged RAGE. Nature of the assay: BIACORE capture, hRAGE-SA over captured antibody, steady state affinity, FC3. The method, then:
as §1

For assay [14], the target named is T5, murine RAGE-strep tag fusion protein. The experiment in a line: BIACORE capture, SA-Mu RAGE over captured antibody, 1:1 Langmuir global fit, FC4. How it is done: as §1
The target is the same in assay [15]. Nature of the assay: BIACORE capture, SA-Mu RAGE over captured antibody, 1:1 Langmuir global fit, FC2. The method, then:
as §1

In assay [16] the target is T4, soluble human streptavidin-tagged RAGE. Nature of the assay: BIACORE capture, hRAGE-SA over captured antibody, steady state affinity, FC4. The method, then:
as §1

T2 sequence (P02769 25-607 limits assumed): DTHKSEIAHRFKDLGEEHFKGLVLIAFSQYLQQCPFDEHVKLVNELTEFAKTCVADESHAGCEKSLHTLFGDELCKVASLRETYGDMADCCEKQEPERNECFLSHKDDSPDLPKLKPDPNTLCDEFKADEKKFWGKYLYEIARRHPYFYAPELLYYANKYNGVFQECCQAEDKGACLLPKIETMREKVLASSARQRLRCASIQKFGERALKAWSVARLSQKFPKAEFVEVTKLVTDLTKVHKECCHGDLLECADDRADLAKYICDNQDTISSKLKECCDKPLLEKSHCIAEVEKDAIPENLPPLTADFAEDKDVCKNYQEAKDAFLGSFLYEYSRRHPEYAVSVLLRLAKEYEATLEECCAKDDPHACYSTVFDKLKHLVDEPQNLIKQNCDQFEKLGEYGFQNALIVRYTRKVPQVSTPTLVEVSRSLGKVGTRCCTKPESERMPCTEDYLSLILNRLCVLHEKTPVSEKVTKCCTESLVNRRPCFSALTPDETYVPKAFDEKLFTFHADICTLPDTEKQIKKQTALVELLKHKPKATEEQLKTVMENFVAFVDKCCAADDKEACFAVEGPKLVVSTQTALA

B1: XT-M4 VL-VH ScFv construct (scFv)
scFv: DIQMTQSPSSMSVSLGDTITITCRASQDVGIYVNWFQQKPGKSPRRMIYRATNLADGVPSRFSGSRSGSIYSLTISSLESEDVADYHCLEFDEHPLTFGSGTKVEIKDGGGSGGGGSGGGGSSEVQLVESGGGLVQPGRSLKLSCVVSGFTFNNYWMTWIRQTPGKGLEWVASINNSGDNTYYPDSVKDRFTISRDNAKSTLYLQMNSLRSEDTATYYCTRGGDITTGFDYWGQGVMVTVSS
notes: Tags (Flag in vitro, His in E. coli) inferred from detection
B1: the binding result in assay [1] is reported as “binds”; in [2] it was “no binding”.

B2: XT-H5 (antibody, mouse IgG1, V domains shown)
VH: EVLLQQSGPELVKPGASVKISCKASGYTFTDYNMDWVKQSHGKSLEWIGDINPDNGGTIYKQKFKGKATLTVDKSSSTAYMELRSLTSEDTAVYYCTTHDHYYYALDYWGQGTSVTVSS
VL: not shown
notes: also called 1hRAGEP3/55
B2: the binding result in assay [3] is reported as “binds”. Further, in assay [4], the Ka stood at 3.69e+08 M⁻¹, the dissociation constant Kd is 2.71 nM, the koff was 0.00451 s⁻¹ and the kon is 1.66e+06 M⁻¹ s⁻¹.

B3: XT-M4-V14 (antibody, V domains shown)
VH: EVQLVESGGGLVQPGGSLRLSCAASGFTFNNYWMTWVRQAPGKGLEWVASIDNSGDNTYYPDSVKDRFTISRDNAKNSLYLQMNSLRAEDTAVYYCARGGDITTGFDYWGQGTLVTVSS
VL: DIQMTQSPSSLSASVGDRVTITCRASQDVGIYVNWFQQKPGKAPKRLIYRATNLADGVPSRFSGSRSGTDFTLTISSLQPEDFATYYCLEFDEHPLTFGGGTKVEIK
As to B3, the Kd in assay [5] was 1.9 nM; in assay [6], 12.9 nM; in assay [7] it was 11.7 nM; in assay [8] it was 16 nM; in [9], 16 nM; in assay [10] it was 13.2 nM. Moreover, the Kd in assay [11] came out at 13.8 nM; in [12], 2 nM; in assay [13], 15 nM; in assay [14], 2 nM; in assay [15] it was 2 nM; in assay [16], 16 nM. Besides, the koff is 0.004 s⁻¹ in assay [5]; 0.0497 s⁻¹ in [6]; 0.0464 s⁻¹ in assay [7]; 0.0661 s⁻¹ in assay [10]; 0.0366 s⁻¹ in assay [11]; 0.0042 s⁻¹ in assay [12]. Moreover, the koff came to 0.0041 s⁻¹ in [14] and 0.0043 s⁻¹ in [15]. The kon in assay [5] came to 2.1e+06 M⁻¹ s⁻¹; in assay [6], 3.88e+06 M⁻¹ s⁻¹; in assay [7] it was 3.96e+06 M⁻¹ s⁻¹; in assay [10] it was 5.02e+06 M⁻¹ s⁻¹; in assay [11], 2.66e+06 M⁻¹ s⁻¹; in [12] it was 2.1e+06 M⁻¹ s⁻¹. The kon in [14] was 2.1e+06 M⁻¹ s⁻¹; in assay [15] it was 2.2e+06 M⁻¹ s⁻¹.

B4: XT-M4-V11 (antibody, V domains shown)
VH: EVQLVESGGGLVQPGGSLRLSCAASGFTFNNYWMTWVRQAPGKGLEWVASIDNSGDNTYYPDSVKDRFTISRDNAKNSLYLQMNSLRAEDTAVYYCARGGDITTGFDYWGQGTLVTVSS
VL: DIQMTQSPSSLSASVGDRVTITCRASQDVGIYVNWFQQKPGKAPRRLIYRATNLADGVPSRFSGSRSGTDFTLTISSLQPEDFATYYCLEFDEHPLTFGGGTKVEIK
Take B4: the Kd in [5] was determined as 2 nM; in assay [6] it was 12.5 nM; in [7] it was 12 nM; in assay [8] it was 16 nM; in assay [9], 16 nM; in [10], 13 nM. Also, the Kd amounted to 13 nM in [11]; 2 nM in assay [12]; 15 nM in assay [13]; 2 nM in [14]; 2 nM in assay [15]; 17 nM in assay [16]. The koff in [5] was found to be 0.0042 s⁻¹; in [6], 0.0374 s⁻¹; in assay [7], 0.039 s⁻¹; in assay [10], 0.041 s⁻¹; in assay [11] it was 0.033 s⁻¹; in assay [12] it was 0.0042 s⁻¹. In addition, the koff in assay [14] was determined as 0.0041 s⁻¹; in assay [15], 0.0043 s⁻¹. The kon in assay [5] was found to be 2.1e+06 M⁻¹ s⁻¹; in assay [6], 3.01e+06 M⁻¹ s⁻¹; in assay [7], 3.4e+06 M⁻¹ s⁻¹; in assay [10], 3.2e+06 M⁻¹ s⁻¹; in [11], 2.5e+06 M⁻¹ s⁻¹; in assay [12] it was 2.1e+06 M⁻¹ s⁻¹. Further, the kon is 2e+06 M⁻¹ s⁻¹ in assay [14] and 2.2e+06 M⁻¹ s⁻¹ in assay [15].

B5: XT-H2 VL-VH ScFv construct (scFv)
scFv: DVVLTQTPLSLPVNIGDQASISCKSTKSLLNSDGFTYLDWYLQKPGQSPQLLIYLVSDRFSGVPDRFSGSGSGTDFTLTISRVEAEDLGVYYCFQSNSLPLTFGSGTKLEIKDGGGSGGGGSGGGGSSQVQLQQSGAELAKPGASVKMSCKASGYTFTTYWMHWVKQRPGQGLYWIGYINPSTGYTEYNQKFKDKATLTADKSSSTAYMQLSSLTSEDSAVYYCARWAGYTIDYWGQGTSVTVSS
notes: Tags (Flag when translated in vitro, His when made in E. coli) are inferred from the detection antibodies
Turning to B5, the binding result in [1] was “binds”; in assay [2], “no binding”.

For orientation: Kd means the free concentration of one partner at which half of the binding sites on the other are occupied at equilibrium, for simple one-to-one binding. The low end stands for tighter binding, the high end for weaker binding. One may read the koff as the rate constant with which the complex falls apart. A lower koff goes with slow dissociation. Broadly, the kon is a measure of how fast the partners come together.

Values taken from patent US20070286858A1 (Pfizer, published 2007).
